Where “and” joins values, the source holds several entries; their conditions need not be identical. Equal entries are not always repeated.

Series [1] concerns the target T1, human PPARγ DBD-LBD (amino acids 101–468) (Homo sapiens (Human), UniProt P37231-2).
T1 chain: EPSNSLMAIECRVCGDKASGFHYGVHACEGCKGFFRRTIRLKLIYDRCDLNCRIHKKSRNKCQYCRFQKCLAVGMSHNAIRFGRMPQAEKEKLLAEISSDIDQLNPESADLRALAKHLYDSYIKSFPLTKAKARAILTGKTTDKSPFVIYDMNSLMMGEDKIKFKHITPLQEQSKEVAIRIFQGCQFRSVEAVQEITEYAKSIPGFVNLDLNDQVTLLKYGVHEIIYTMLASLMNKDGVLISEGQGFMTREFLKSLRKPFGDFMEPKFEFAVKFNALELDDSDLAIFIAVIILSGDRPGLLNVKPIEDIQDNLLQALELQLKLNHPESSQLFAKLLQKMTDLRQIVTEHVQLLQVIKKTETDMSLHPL
Nature of the series: SEC, SAXS, H/D exchange MS.

For series [2], the target named is T2, human PPARγ LBD (amino acids 204–477) (Homo sapiens (Human), UniProt P37231-2).
T2 chain: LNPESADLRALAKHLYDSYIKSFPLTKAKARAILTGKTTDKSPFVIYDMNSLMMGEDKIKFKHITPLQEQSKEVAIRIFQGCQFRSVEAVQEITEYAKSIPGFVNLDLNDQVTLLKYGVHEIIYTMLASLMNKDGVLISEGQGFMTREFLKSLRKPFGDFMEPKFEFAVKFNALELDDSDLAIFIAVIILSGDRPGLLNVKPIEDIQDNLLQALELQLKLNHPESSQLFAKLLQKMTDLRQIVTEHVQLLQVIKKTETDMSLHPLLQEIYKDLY
As to the kind of experiment: SEC, native PAGE, DLS, SAXS. A general note: Size exclusion chromatography separates by hydrodynamic size, large species first.

Series [3] addresses T3, human PPARγ LBD (amino acids 204–477) (human, UniProt P37231-2 204-477).
T3 construct: Cloned in pET28a(+); His-tag removed with thrombin; also called hPPARγ LBD; PPAR LBD
T3 sequence (looked up): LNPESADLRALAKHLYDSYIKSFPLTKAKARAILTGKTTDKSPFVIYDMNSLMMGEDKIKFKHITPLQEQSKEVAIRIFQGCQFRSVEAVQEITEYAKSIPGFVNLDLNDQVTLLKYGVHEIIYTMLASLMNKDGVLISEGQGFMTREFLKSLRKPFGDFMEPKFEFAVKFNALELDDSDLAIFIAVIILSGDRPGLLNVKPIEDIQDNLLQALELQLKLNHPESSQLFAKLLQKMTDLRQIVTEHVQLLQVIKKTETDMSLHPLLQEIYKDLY
Nature of the series: SEC; analytical gel filtration, Superdex 75 HR 10/30 (LBD constructs) or Superdex 200 HR 10/30 (DBD-LBD constructs); 20 mM Hepes-Na pH 8.0, 3 mM dithiothreitol, 200 mM NaCl, 5% glycerol; heterodimers formed from 20 mg/mL of each protein, 1:1 molar, 1 h at 4°C; RH from calibration standards. Particulars: both partners purified.

Series [4] deals with the molecule itself. As to the kind of experiment: native gel or EMSA; native polyacrylamide gel electrophoresis after gel filtration; RH from band mobility; hPPARγ LBD at 1 to 20 mg/mL. (A gel shift assay detects complexes by their altered migration in electrophoresis.)
Series [5] concerns the molecule itself. As to the kind of experiment: SEC; analytical gel filtration, Superdex 75 HR 10/30 (LBD constructs) or Superdex 200 HR 10/30 (DBD-LBD constructs); 20 mM Hepes-Na pH 8.0, 3 mM dithiothreitol, 200 mM NaCl, 5% glycerol; heterodimers formed from 20 mg/mL of each protein, 1:1 molar, 1 h at 4°C; RH from calibration standards.
Series [6] deals with the molecule itself. Nature of the series: dynamic light scattering; DLS after gel filtration; hPPARγ LBD at different concentrations.

B1: human RXRα DBD-LBD (amino acids 135–462) (protein)
chain: CAICGDRSSGKHYGVYSCEGCKGFFKRTVRKDLTYTCRDNKDCLIDKRQRNRCQYCRYQKCLAMGMKREAVQEERQRGKDRNENEVESTSSANEDMPVERILEAELAVEPKTETYVEANMGLNPSSPNDPVTNICQAADKQLFTLVEWAKRIPHFSELPLDDQVILLRAGWNELLIASFSHRSIAVKDGILLATGLHVHRNSAHSAGVGAIFDRVLTELVSKMRDMQMDKTELGCLRAIVLFNPDSKGLSNPAEVEALREKVYASLEAYCKHKYPEQPGRFAKLLLRLPALRSIGLKCLEHLFFFKLIGDTPIDTFLMEMLEAPHQMT
For the molecule B1, in series [1], the binding result was “binds”.

B2: human RXRα LBD (amino acids 225–462) (domain or fragment, UniProt P19793 225-462, looked up)
chain: SANEDMPVERILEAELAVEPKTETYVEANMGLNPSSPNDPVTNICQAADKQLFTLVEWAKRIPHFSELPLDDQVILLRAGWNELLIASFSHRSIAVKDGILLATGLHVHRNSAHSAGVGAIFDRVLTELVSKMRDMQMDKTELGCLRAIVLFNPDSKGLSNPAEVEALREKVYASLEAYCKHKYPEQPGRFAKLLLRLPALRSIGLKCLEHLFFFKLIGDTPIDTFLMEMLEAPHQMT
notes: Cloned in pET28a(+); also called hRXRα LBD
Turning to B2, the binding result in series [2] and in series [3] was “binds” throughout. Also, the stoichiometry N (commonly a count of units in the complex or per binding partner) was 4 and 2 in series [4]; 2 and 4 in series [5]; 4 and 2 in series [6].

The record behind these values is PMC3283691, “Low-Resolution Molecular Models Reveal the Oligomeric State of the PPAR and the Conformational Organization of Its Domains in Solution” (PLoS ONE, 2012).
